This note sets out measurements from patent publication US20100204100A1, “BIOLOGICAL AGENTS ACTIVE IN CENTRAL NERVOUS SYSTEM” (THE JOHNS HOPKINS UNIVERISTY, priority 2007, published 2010).

Numbering of substitutions follows the chain as printed. Names may count otherwise. “Also recorded” adds a separate entry of the source.

For series [1], the system named is cultured spinal neurons. Description: In vitro delivery of Tat fusion peptide in cultured spinal neurons (Western blot, anti-His antibody). Conditions: 10 μM peptide, 30 min incubation, cultured mouse spinal neurons. Type of series: cell-based. As to the method:
In Vitro Delivery of Tat Fusion Peptide in Cultured Spinal Neurons. The intracellular delivery of Tat fusion peptide was assessed by Western blot analysis 30 min after application of 10 μM Tat-PSD-95 PDZ2 to cultured spinal neurons. The same dose of PSD-95 PDZ2 without Tat served as a control. Spinal cord neuronal cultures were prepared as previously described (O'Brien, et al., 1997) with minor modification. In brief, embryonic day 14 mouse spinal cord was digested for 45 min at 34° C. Cells were gently dissociated with a 5-ml pipette, filtered through a 70-μm filter, and centrifuged through a solution of 1% soybean trypsin inhibitor and 1% bovine serum albumin at 80×g for 10 min. High-density cultures were plated at 2 million cells/60-mm dish. Cell lysates from high-density cultures were solubilized in 1% Triton X-100/0.2% sodium dodecyl sulfate (SDS) and subjected to SDS-polyacrylamide gel electrophoresis (SDS-PAGE). Proteins were immunoblotted with monoclonal anti-His antibody (Sigma) and visualized with enhanced chemiluminescence (Amersham Biosciences, Piscataway, N.J.).

For series [2], the target named is T1, interactions between NMDA receptor NR2B and PSD-95 protein (Mus musculus, UniProt Q01097).
T1 construct: from tissue; host or cells: NR2B: solubilized membrane fraction of mouse spinal lumbar enlargement
T1 sequence (Q01097 27-1482, other chains not shown): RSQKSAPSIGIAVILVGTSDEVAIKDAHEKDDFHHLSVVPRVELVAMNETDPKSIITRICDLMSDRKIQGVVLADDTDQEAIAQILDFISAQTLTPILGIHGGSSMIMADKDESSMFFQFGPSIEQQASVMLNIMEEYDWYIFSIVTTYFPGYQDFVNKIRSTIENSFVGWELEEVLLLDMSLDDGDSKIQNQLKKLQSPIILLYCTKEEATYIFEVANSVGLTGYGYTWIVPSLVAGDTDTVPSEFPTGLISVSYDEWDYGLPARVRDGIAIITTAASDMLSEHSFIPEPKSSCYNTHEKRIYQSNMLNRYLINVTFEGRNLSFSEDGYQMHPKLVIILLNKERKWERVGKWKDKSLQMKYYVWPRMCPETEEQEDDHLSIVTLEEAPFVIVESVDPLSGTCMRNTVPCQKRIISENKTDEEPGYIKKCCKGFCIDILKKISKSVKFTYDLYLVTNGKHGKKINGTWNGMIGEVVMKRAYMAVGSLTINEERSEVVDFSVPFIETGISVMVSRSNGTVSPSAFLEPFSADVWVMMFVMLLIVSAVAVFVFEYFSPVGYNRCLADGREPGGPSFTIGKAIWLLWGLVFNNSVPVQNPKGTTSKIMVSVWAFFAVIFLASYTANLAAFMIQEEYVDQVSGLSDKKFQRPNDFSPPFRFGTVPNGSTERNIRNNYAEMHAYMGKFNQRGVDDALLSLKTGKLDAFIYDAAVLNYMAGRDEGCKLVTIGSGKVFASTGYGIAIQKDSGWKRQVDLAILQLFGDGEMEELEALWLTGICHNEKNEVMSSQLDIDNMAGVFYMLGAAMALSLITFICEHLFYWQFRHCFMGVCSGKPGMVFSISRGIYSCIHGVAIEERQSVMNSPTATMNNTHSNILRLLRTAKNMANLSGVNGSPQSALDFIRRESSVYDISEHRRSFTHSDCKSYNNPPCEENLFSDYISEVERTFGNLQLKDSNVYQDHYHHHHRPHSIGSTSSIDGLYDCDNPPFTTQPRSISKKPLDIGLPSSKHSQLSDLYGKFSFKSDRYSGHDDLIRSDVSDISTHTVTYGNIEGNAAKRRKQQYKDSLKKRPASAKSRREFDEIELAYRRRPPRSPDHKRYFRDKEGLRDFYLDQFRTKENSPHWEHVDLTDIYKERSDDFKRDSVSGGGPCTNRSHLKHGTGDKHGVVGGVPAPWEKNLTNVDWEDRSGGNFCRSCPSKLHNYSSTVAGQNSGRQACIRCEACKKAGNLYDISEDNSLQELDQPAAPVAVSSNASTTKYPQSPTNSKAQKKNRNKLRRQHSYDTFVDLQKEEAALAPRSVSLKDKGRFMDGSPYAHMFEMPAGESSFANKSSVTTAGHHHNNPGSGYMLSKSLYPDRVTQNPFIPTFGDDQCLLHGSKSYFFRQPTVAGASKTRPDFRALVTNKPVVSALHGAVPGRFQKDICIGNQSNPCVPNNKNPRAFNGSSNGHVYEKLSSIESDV
The series is described as follows: In vitro binding assay (GST pull-down) with GST-PSD-95 PDZ1,2 and spinal membrane fraction. The following applies: for effect on interactions between GST-PSD-95 PDZ1,2 and NR2B (amount of NR2B pulled down): preincubation with different doses of peptide, 30 min; for effect on interactions between NMDAR NR2 subunits and PSD-95: summary of GST pull-down and co-immunoprecipitation (FIG. 2). As for the experimental part: In Vitro and In Vivo Binding Assays. […] Membrane-bound proteins from the spinal lumbar enlargement segments were extracted as described previously (Tao, et al., 2003a). For in vitro binding experiments (GST pull-down), the solubilized membrane fraction and GST fusion peptide were first preincubated with different concentrations of Tat-PSD-95 PDZ2 at room temperature for 30 min. Then the membrane fraction was mixed with the GST fusion peptide at room temperature for 1 h. The resin was washed five times with washing buffer (PBS plus 500 mM NaCl and 0.1% Triton X-100) and then boiled in 1×SDS-PAGE sample buffer to elute the bound proteins. After being separated by electrophoresis, the proteins were detected by immunoblotting with anti-GST antibody (Santa Cruz Biotechnology, Santa Cruz, Calif.) and anti-NR2B antibody (Upstate Biotechnology, Lake Placid, N.Y.). For in vivo binding experiments (co-immunoprecipitation), 5 μg of the affinity-purified rabbit NR2A/2B antibody (Chemicon, Temecula, Calif.) was incubated with 100 μl of protein A-Sepharose slurry for 1 h, and the complex was spun down at 2000 rpm for 4 min. The solubilized membrane fraction (500 μg) from the different groups of treated mice as mentioned-above then was added to the Sepharose beads, and the mixture was incubated for 2-3 h at 4° C. The mixture was washed once with 1% Triton X-100 in immunoprecipitation buffer [containing (in mM): 137 sodium chloride, 2.7 potassium chloride, 4.3 disodium hydrogen phosphate, 1.4 potassium dihydrogen phosphate, 5 ethylene glycol tetraacetic acid, 1 sodium vanadate, 10 sodium pyrophosphate, 50 sodium fluoride, 0.1 phenylmethylsulfonyl fluoride, and 20 U/ml Trasylol], twice with 1% Triton X-100 in immunoprecipitation buffer plus 300 mM sodium chloride, and three times with immunoprecipitation buffer. The proteins were separated by SDS-PAGE and detected by NR2A/2B or PSD-95 antibody (Upstate Biotechnology, Lake Placid, N.Y.). As a positive control (input), 50 μg of the solubilized membrane fraction was loaded onto the gel.

Series [3] in a line: Baseline paw withdrawal threshold after peptide injection. Type of series: in vivo, mouse. Conditions: mice without CFA, vs vehicle. As for the experimental part: Behavioral Analysis. Mechanical sensitivity of the mice was measured with von Frey filaments (Stoelting, Wood Dale, Ill.) as described previously (Yang and Gereau, 2003). Mice were placed in Plexiglas testing boxes with a 1×1 cm^2 wire-mesh grid floor and habituated for 3 h before experiments. Each von Frey filament was applied to the mouse hind paw in ascending order until it bent at approximately 30° for about 3 s. The smallest filament that evoked a paw withdrawal response was taken as the mechanical threshold (paw withdrawal threshold). Similar sites were selected for measuring mechanical thresholds in all tested animals, and the thresholds were measured at approximately the same site throughout the experiment for each individual animal. Two to three measurements were made before CFA or fusion peptides injection, and the average was calculated as the baseline. Established inflammatory pain behaviors were induced by intraplantar injection of CFA solution (20 μl, 1 mg/ml). […] The effect of Tat fusion peptide on CFA-induced established inflammatory pain behaviors was expressed as % of baseline.

Series [4] is described as follows: Tests for locomotor function (placing, grasping, righting reflexes). Type of series: in vivo, mouse. The following applies: unanesthetized mice, 4 h after intraperitoneal injection, vs vehicle. The text has this:
Tests for Locomotor Function. Four hours after intraperitoneal injection of Tat fusion peptides, their effects on locomotor function were examined with the following tests as described previously (Coderre and Van, 1,1994; Tao, et al., 2003a). 1) Placing reflex: The mouse was held with hind limbs slightly lower than forelimbs and the dorsal surface of the hind paws was brought into contact with the edge of a table. The experimenter recorded whether the mouse placed its hind paws on the table surface reflexively; 2) Grasping reflex: The mouse was placed on a wire grid and the experimenter recorded whether the hind paws grasped the wire on contact; and 3) Righting reflex: The mouse was placed on its back on a flat surface and the experimenter noted whether it immediately assumed the normal upright position.
The effects of Tat fusion peptides on locomotor function were examined 4 h after intraperitoneal injection. The following tests were performed as described previously^23. 1) Placing reflex: The mouse was held with hind limbs slightly lower than forelimbs, and the dorsal surface of the hind paws was brought into contact with the edge of a table. The experimenter recorded whether the mouse placed its hind paws on the table surface reflexively; 2) Grasping reflex: The mouse was placed on a wire grid, and the experimenter recorded whether the hind paws grasped the wire on contact.

B1: Tat-PSD-95 PDZ2: His-tagged fusion peptide: HIV Tat minimal transduction domain (residues 47-57) fused to the second PDZ domain of PSD-95 (protein)
chain: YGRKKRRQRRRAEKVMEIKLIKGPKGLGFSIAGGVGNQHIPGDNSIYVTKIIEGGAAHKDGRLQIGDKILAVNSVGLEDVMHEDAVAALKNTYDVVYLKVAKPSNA
In the case of B1, in series [1], the “His-peptide detected in neurons (intracellular delivery), Western blotting with anti-His antibody” value is reported as “detected only; also recorded: only detected”. In addition, the “effect on NR2B being pulled down at high dose” value in series [2] (16 μg peptide) was “completely prevented”. For the same molecule, in series [2], the “effect on interactions between GST-PSD-95 PDZ1,2 and NR2B (amount of NR2B pulled down)” value is “dose-dependently inhibited; also recorded: dose-dependently reduced”; the “effect on interactions between NMDAR NR2 subunits and PSD-95” value is “markedly disrupted”. Also, in series [3], the “effect on baseline paw withdrawal threshold” value is “no significant effect”. The “effect on locomotor function (placing, grasping, righting reflexes)” value in series [4] is reported as “no effect; also recorded: did not show any effect”.

B2: mutated Tat-PSD-95 PDZ2: Control fusion peptide: Tat-PSD-95 PDZ2 with three sites critical for NMDAR/PSD-95 interaction mutated (K165T, L170R and H182L) (protein)
chain: B1 chain with K22T, L27R, H39L
As to B2, in series [2], the “effect on interactions between GST-PSD-95 PDZ1,2 and NR2B (amount of NR2B pulled down)” value is on record as “no effect”; the “effect on interactions between NMDAR NR2 subunits and PSD-95” value was “no effect”.
